Results published in patent publication US20160168234A1 (published 2016).
Ends that are not written are not given here.

How the values were obtained:
Assay in all cases: ELISA on biotinylated peptides of the alanine library on streptavidin plates
[1] = target: T1, peptide A16 of the second library (Aβ12-20 with aa 16 changed to alanine) (also: biotinylated, position not given here)
T1 peptide: VHHQALVFF
From the text: (§1) One library comprised a total of 33 biotinylated peptides covering the complete amino acid (aa) sequence of Aβ1-42 (produced by Mimotopes and purchased from ANAWA Trading SA), the second library contains biotinylated peptides using peptide 12 (aa12-20 of Aβ) from the first peptide library and substituting each as in the sequence by an alanine (see table 3 below), and the third library contains biotinylated peptides 13, 14, or 15 (aa 13-21, 14-22 or 15-23 of Aβ) and substituting in each case the last amino acids to an alanine or to a glycine for as 21 which is already an alanine (see table 4 below). A biotinylated complete Aβ1-42 peptide was used as positive control (Bachem). Epitope mapping was done according to the manufacturer's (Mimotopes) instructions. Briefly, Streptavidin coated plates (NUNC) were blocked with 0.1% BSA in PBS overnight at 4° C. After washing with PBS-0.05% Tween 20, plates were coated for 1 hour at RT with the different peptides from the library, diluted in 0.1% BSA, 0.1% Sodium Azide in PBS to a final concentration of 10 μM. […] Plates were washed again and incubated with alkaline phosphatase conjugated goat anti human IgG for 1 h at RT. After final washing, plates were incubated with phosphatase substrate (pNPP) and read at 405 nm using an ELISA plate reader.

[2] = target: T2, peptide A17 of the second library (Aβ12-20 with aa 17 changed to alanine) (also: biotinylated, position not given here)
T2 peptide: VHHQKAVFF
From the text: as §1

[3] = target: T3, peptide A19 of the second library (Aβ12-20 with aa 19 changed to alanine) (also: biotinylated, position not given here)
T3 peptide: VHHQKLVAF
From the text: as §1

[4] = target: T4, peptide A20 of the second library (Aβ12-20 with aa 20 changed to alanine) (also: biotinylated, position not given here)
T4 peptide: VHHQKLVFA
From the text: as §1

- binding result [1]: no binding (tested: 200 ng/ml)
- binding result [2]: no binding (tested: 200 ng/ml)
- binding result [3]: no binding (tested: 200 ng/ml)
- binding result [4]: no binding (tested: 200 ng/ml)
B1: humanized anti-human amyloid beta monoclonal antibody hC2 (antibody, human IgG4 S228P, kappa)
heavy: not shown
light: DIVMTQSPLSLPVTPGEPASISCRSSQSLVYSNGDTYLHWYLQKPGQSPQLLIYKVSNRFSGVPDRFSGSGSGTDFTLKISRVEAEDVGVYYCSQSTHVPWTFGQGTKVEIKRTVAAPSVFIFPPSDEQLKSGTASVVCLLNNFYPREAKVQWKVDNALQSGNSQESVTEQDSKDSTYSLSSTLTLSKADYEKHKVYACEVTHQGLSSPVTKSFNRGEC
notes: also called humanized antibody C2; humanized C2
